Results from the nanobody polyreactivity screen of Harvey et al. (2022).

Assay: yeast display, Sf9 membrane polyspecificity reagent, FACS + sequencing; frameworks hold sequencing errors
Procedure, shortened: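 After 36–48 hours of galactose induction, yeast (Saccharomyces cerevisiae BJ5465) displaying a synthetic nanobody library were stained at 4 °C for 1 hour with 10% biotinylated, detergent-solubilized Sf9 membrane reagent. Streptavidin microbeads enriched the stained cells before FACS sorting into low and high (top ~1%) gates on anti-HA and streptavidin fluorescence. Each clone's polyreactivity label reflects its gate of origin.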

QVQLVESGVGLVQAGGSLRLSCAASGRTFGSNAMGWYRQAPGKERELVAAISRVGSTYYADSVKGRFTISRDNAKNTVYLQMNSLKPEDTAVYYCPYDYWGQGTQVTVSS
polyreactivity (PSR sort gate): low polyreactivity

QVQLVESGGGLVQAGGSLRLSCAASGRTFLYYAMGWYRQAPGKERELVAAISTGSSTYYADSVKGRFTISRDNAKNTVYLQMNSLKPEDTAVYYCAAGSIVGYPGFSTDDYWGQGTQVTVSS
polyreactivity (PSR sort gate): low polyreactivity

QFQLVESAGGLLQAGGSLRIICAASGSTFGYNAMGWYRQAPGKERELVAAITGGGTTNYADSVKGRFTISRDNAKNTVYLQMNSLKPEDTAVYYCAASARRFFFPIYGLYYWGQVTQVTVSS
polyreactivity (PSR sort gate): high polyreactivity

QVQLVESGGGLVQAGGSLRLSCAASGRTFSYYAMGWYRQAPGKERELVASIRKSGASTYYADSVKGRFTISRDNAKNTVYLQMNSLKPEDTAVYYCAARGSRKPDWGLGYWGQGTQVTVSS
polyreactivity (PSR sort gate): high polyreactivity

QVQLQESGGGLVQAGGSLRLSCAASGTIFRFRYMGWHRQAPGKERELVAGINGGTTTYYADSVIGRFTISRDNAINTVYLQMNSLKPDDTAVYNCAAGASRLTYYDYWGQGTQVTVSS
polyreactivity (PSR sort gate): low polyreactivity

QVQLVESGGGLVQAGGSLRLSCAASGSICVRNTMGWYRQAPGKERELVAAISSRGTSTYYADSVKGRFTISRDNAKNTVYLQMNSLKPEDTAVYYCAARVYPYNSWGQGTQVTVSS
polyreactivity (PSR sort gate): high polyreactivity

QVQLVESGGGVVQAGGSLRLSCAATGSRYWDYPMGWYRQAPGKERELVAAISTSGGSTYYADSVKGRFTISRDNAKNTVYLQMNSLNPEDTAVYYCATRVRTGSVGNFNYWGQGTQVTVSS
polyreactivity (PSR sort gate): high polyreactivity

QVQLVESGGGLVQAGGSLRLSCAASGSIILYYAIGWYRQAPGIERELVAGIRRGGRTNYADSVKGRFTISRDNAKNTVYLQMNSLKPEDTAVYYCAKGGYWGQGSQVTVSS
polyreactivity (PSR sort gate): high polyreactivity

QVQLEGSGGGLVQAGGSLRLSCAASGSIFSTNAMGWYRKAPGKERELVASISSGGGSTYYADSVKGRFTISRDTAKKTVYLQMNSLKPEDTAVYYCARRIGHGSRPYWLETWRYPYEYWGQGTQVTVSS
polyreactivity (PSR sort gate): low polyreactivity

QVQLVESGGGLVQAGGSLRLSCAASGSTFYIYAMGWYRQAPGKERELVAAISWRGGRTYYADSVKGRFTISRDNAKNTVYLQMNSLKPEDTAVYYCAAAYLRWSGTYYYVDGYDYWGQGTQVTVSS
polyreactivity (PSR sort gate): high polyreactivity

QVQLVESGGGLVQAGGSLSLSCAASGSIFYNYAMGWYRQAPGKEREFVAAISWSGDTTYYADSVKGRFTISRDNAKNTVYLQMNSLKPEDTAVYYCNADIYASEYYYWGQGTQVTVSS
polyreactivity (PSR sort gate): low polyreactivity

QVQLVESGGGLVQAGGSLRLSCAASGFTFPYYTMGWYRQAPGKERELVAAITSSGGSTYYADSVKGRFTISRDNAKNTVYLQMNSLKPEDTAVYYCNAAVYAHRYIYGFDYWGQGTQVTVSS
polyreactivity (PSR sort gate): high polyreactivity

QVQLVESGGGLVQAGGSLRLSCAASGFIFSSYAMGWYRQAPGKERELVASTSRRAGRTYYADSVKGRFTISRDNAKNTVYVQMNSLKPEDSAVYYCAAEARVGYHFQILDYWGQGTQVTVSS
polyreactivity (PSR sort gate): high polyreactivity

QVQLVESGGGLVQAGGSLRLSCAASGSTFAIYAMGWYRQAPGKERELVAAITRGSTSYADSVKGRFTISRDNAKNTVYLQMYSLKPEDTAVYYCAADSSRYGVIRDFDYWGQGTQVTVSS
polyreactivity (PSR sort gate): high polyreactivity

QVQLVDSAGGLVQAGGSLRLICAASGYTQIKNAMGVSRHAPGKERELVAAISSGGSTKYADSVKGRFTISRDNAKNTVYLQMNSLKPEDTAVYYCAKGRVVPYRRYTRIHMYHWGLGTQVTVSS
polyreactivity (PSR sort gate): high polyreactivity

QVQLVESGGGLVQAGGSLRLSCAASGSIRYYVKGWYRQAPGKERELVAGINWSGGSTYYADSVKGRFTISRDNAKNTVYLQMNSLKPEDTAVYYCAARFVGVRDGYYYWGQGTQVTLSS
polyreactivity (PSR sort gate): high polyreactivity

QVQLVESGGGLVQAGGSLRLRGAASGFTYLYYAMGWYRQAPGKERELVAAITWSGDSTYYADSVKGRFTISRDNAKNTVYLQMNSLKPEDTAVYYCANGGVTFGTVVRGVDGDYWGQGTQVTVSS
polyreactivity (PSR sort gate): low polyreactivity
